B1: Regulatory protein NPR1 (Arabidopsis thaliana (Mouse-ear cress)), P93002 (parent)
chain: MDTTIDGFADSYEISSTSFVATDNTDSSIVYLAAEQVLTGPDVSALQLLSNSFESVFDSPDDFYSDAKLVLSDGREVSFHRCVLSARSSFFKSALAAAKKEKDSNNTAAVKLELKEIAKDYEVGFDSVVTVLAYVYSSRVRPPPKGVSECADENCCHVACRPAVDFMLEVLYLAFIFKIPELITLYQRHLLDVVDKVVIEDTLVILKLANICGKACMKLLDRCKEIIVKSNVDMVSLEKSLPEELVKEIIDRRKELGLEVPKVKKHVSNVHKALDSDDIELVKLLLKEDHTNLDDACALHFAVAYCNVKTATDLLKLDLADVNHRNPRGYTVLHVAAMRKEPQLILSLLEKGASASEATLEGRTALMIAKQATMAVECNNIPEQCKHSLKGRLCVEILEQEDKREQIPRDVPPSFAVAADELKMTLLDLENRVALAQRLFPTEAQAAMEIAEMKGTCEFIVTSLEPDRLTGTKRTSPGVKIAPFRILEEHQSRLKALSKTVELGKRFFPRCSAVLDQIMNCEDLTQLACGEDDTAEKRLQKKQRYMEIQETLKKAFSEDNLELGNSSLTDSTSSTSKSTGGKRSNRKLSHRRR
partner: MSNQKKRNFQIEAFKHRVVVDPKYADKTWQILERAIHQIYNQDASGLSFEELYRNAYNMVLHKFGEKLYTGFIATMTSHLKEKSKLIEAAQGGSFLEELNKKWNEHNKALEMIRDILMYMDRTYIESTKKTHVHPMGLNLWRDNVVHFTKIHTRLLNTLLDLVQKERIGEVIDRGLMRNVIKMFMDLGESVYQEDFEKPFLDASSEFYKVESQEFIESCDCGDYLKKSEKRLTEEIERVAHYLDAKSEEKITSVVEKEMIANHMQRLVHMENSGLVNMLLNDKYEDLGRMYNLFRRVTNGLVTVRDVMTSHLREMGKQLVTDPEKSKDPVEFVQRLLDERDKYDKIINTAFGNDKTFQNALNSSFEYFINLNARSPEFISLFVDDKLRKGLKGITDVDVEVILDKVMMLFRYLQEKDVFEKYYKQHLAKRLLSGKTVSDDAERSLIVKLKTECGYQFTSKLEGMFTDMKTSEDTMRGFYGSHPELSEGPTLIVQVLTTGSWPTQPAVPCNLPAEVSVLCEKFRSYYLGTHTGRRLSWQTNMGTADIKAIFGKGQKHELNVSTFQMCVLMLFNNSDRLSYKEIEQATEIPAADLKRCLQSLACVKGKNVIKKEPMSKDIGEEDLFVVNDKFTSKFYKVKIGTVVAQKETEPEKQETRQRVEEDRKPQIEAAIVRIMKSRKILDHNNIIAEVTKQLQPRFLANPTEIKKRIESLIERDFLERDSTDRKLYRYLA

Variants of: B1
Details: with cul3a_arath CUL3A

Variant | effect of a mutation on the interaction
S11A;S15A | decreasing interaction
